Data on six molecules can be found in patent US20140031283A1, “ANTICANCER FUSION PROTEIN” (ADAMED SP. Z O.O., priority 2011, published 2014).

The subject of test [1] is A549. As to the kind of experiment: MTT cytotoxicity test, A549 (human lung cancer). The test is classed as cell-based. The conditions noted are these: for A549 IC50: continuous incubation over 72 h, test MTT; for A549 mean (IC50): Table 4, mean/SD part. The text has this: (§1) MTT assay is a colorimetric assay used to measure proliferation, viability and cytotoxicity of cells. It consists in decomposition of a yellow tetrazolium salt MTT (4,5-dimethyl-2-thiazolyl)-2,5-diphenyltetrazolium bromide) to the water-insoluble purple dye formazan by mitochondrial enzyme succinate-tetrazolium reductase 1. MTT reduction occurs only in living cells. Data analysis consists in determining IC50 concentration of the protein (in ng/ml), at which the 50% reduction in the number of cells occurs in the population treated compared to control cells. Results were analyzed using GraphPad Prism 5.0 software. The test was performed according to the literature descriptions (Cells, J E, (1998). Cell Biology, a Laboratory Handbook, second edition, Academic Press, San Diego; Yang, Y., Koh, L W, Tsai, J H., (2004); Involvement of viral and chemical factors with oral cancer in Taiwan, Jpn J Clin Oncol, 34 (4), 176-183). Cell culture medium was diluted to a defined density (10^4-10^5 cells per 100 μl). Then 100 μl of appropriately diluted cell suspension was applied to a 96-well plate in triplicates. Thus prepared cells were incubated for 24 h at 37° C. in 5% or 10% CO2, depending on the medium used, and then to the cells (in 100 μl of medium) further 100 μl of the medium containing various concentrations of tested proteins were added. In the case of combination hTRAIL114-281 and p21WAF effector protein, 100 μl of the medium containing mixture of hTRAIL114-281 and p21WAF effector protein in molar ratio 1:1 was added. After incubation of the cells with tested proteins over the period of next 72 hours, which is equivalent to 3-4 times of cell division, the medium with the test protein was added with […] of MTT working solution [5 mg/ml], and incubation was continued for 3 h at 37° C. in 5% CO2. Then the medium with MTT solution was removed, and formazan crystals were dissolved by adding 100 μl of DMSO. After stirring, the absorbance was measured at 570 nm (reference filter 690 nm).
(§2) The results of in vitro cytotoxicity tests are summarized as IC50 values (ng/ml), which corresponds to the protein concentration at which the cytotoxic effect of fusion proteins is observed at the level of 50% with respect to control cells treated only with solvent. Each experiment represents the average value of at least two independent experiments performed in triplicates. As a criterion of lack of activity of protein preparations the IC50 limit of 2000 ng/ml was adopted.
For orientation: Tetrazolium dyes change colour on reduction, which living cells bring about.

For test [2], the system named is MES-SA. Put plainly: MTT cytotoxicity test, MES-SA (human uterine sarcoma). The test is classed as cell-based. Particulars: for MES-SA IC50: continuous incubation over 72 h, test MTT; for MES-SA mean (IC50): Table 4, mean/SD part.
Excerpt: as §1, §2

Test [3] relates to MES-SA/Dx5. Put plainly: MTT cytotoxicity test, MES-SA/Dx5 (multidrug-resistant human uterine sarcoma). The conditions noted are these: for MES-SA/Dx5 IC50: continuous incubation over 72 h, test MTT; for MES-SA/Dx5 mean (IC50): Table 4, mean/SD part. The test is classed as cell-based.
Excerpt: as §1, §2
Cells selected for this test included tumor cell lines that are naturally resistant to TRAIL protein (the criterion of natural resistance to TRAIL: IC50 for TRAIL protein >2000), as well as tumor cell lines sensitive to TRAIL protein and resistant to doxorubicin line MES-SA/DX5 as a cancer line resistant to conventional anticancer medicaments.

Test [4] relates to SK-MES-1. As to the kind of experiment: MTT cytotoxicity test, SK-MES-1 (human lung cancer). The test is classed as cell-based. Particulars: for SK-MES-1 IC50: continuous incubation over 72 h, test MTT; for SK-MES-1 mean (IC50): Table 4, mean/SD part.
Excerpt: as §1, §2

Test [5] concerns MCF10A. Put plainly: MTT cytotoxicity test, MCF10A (mammary epithelial cells). Particulars: for MCF10A IC50: continuous incubation over 72 h, test MTT; for MCF10A mean (IC50): Table 4, mean/SD part. The test is classed as cell-based.
Excerpt: as §1, §2

In test [6] the test system is TRAIL sensitive cell lines. Put plainly: in vitro cytotoxicity tests, TRAIL sensitive cell lines. The test is classed as cell-based. The conditions noted are these: continuous incubation over 72 h, test MTT; versus rhTRAIL 95-281 (cell line not given).
Excerpt: as §1, with “nm). […]” for “nm).”

Test [7] deals with HCT-116. The conditions noted are these: for HCT116 IC50: continuous incubation over 72 h, test MTT; for HCT116 mean (IC50): Table 4, mean/SD part.

B1: Ex. 7: fusion protein: 8-amino acid fragment of human fetoprotein at C-terminus of TRAIL95-281, cysteine-alanine linker, MMP and uPA cleavage sites (protein)
chain: TSEETISTVQEKQQNISPLVRERGPQRVAAHITGTRGRSNTLSSPNSKNEKALGRKINSWESSRSGHSFLSNLHLRNGELVIHEKGFYYIYSQTYFRFQEEIKENTKNDKQMVQYIYKYTSYPDPILLMKSARNSCWSKDAEYGLYSIYQGGIFELKENDRIFVSVTNEHLIDMDHEASFFGAFLVGCAACAAACPLGLAGRVVREMTPVNPG
modifications: synthesized, a fusion protein comprising: a fragment of TRAIL protein, a fragment of human fetoprotein, cleavage sites recognized by uPA and MMP and a flexible cysteine - alanine linker.
notes: fusion protein: 8-amino acid fragment of human fetoprotein at C-terminus of TRAIL95-281, cysteine-alanine linker, MMP and uPA cleavage sites
As a reminder, the IC50 is the concentration needed to halve the response being measured. As for B1, in test [1], the “A549 IC50” value was more than 2 µg/mL. Besides, in test [2], the “MES-SA IC50” value is more than 2 µg/mL. The “MES-SA/Dx5 IC50” value in test [3] is 0.02211 µg/mL. Besides, the “SK-MES-1 IC50” value in test [4] turned out to be 0.0366 µg/mL. In addition, in test [5], the “MCF10A IC50” value is more than 2 µg/mL. The IC50 in test [6] amounted to 0.105 µg/mL. In addition, the “HCT116 IC50” value in test [7] was found to be 0.0635 µg/mL.

B2: Ex. 16: fusion protein: hexapeptide inhibitor of E2F with antennapedia sequence at N-terminus of TRAIL121-281, uPA and MMP sites (protein)
chain: FWLRFTKPRRPYRVVRPLGLAGRVAAHITGTRGRSNTLSSPNSKNEKALGRKINSWESSRSGHSFLSNLHLRNGELVIHEKGFYYIYSQTYFRFQEEIKENTKNDKQMVQYIYKYTSYPDPILLMKSARNSCWSKDAEYGLYSIYQGGIFELKENDRIFVSVTNEHLIDMDHEASFFGAFLVG
modifications: synthesized, a fusion protein comprising: a fragment of TRAIL protein, a peptide inhibitor of E2F, cleavage sites recognized by urokinase uPA and metalloprotease MMP and an antennapedia transporting domain.
For the molecule B2, the “A549 mean (IC50)” value in test [1] turned out to be 0.04285 µg/mL. The “MES-SA mean (IC50)” value in test [2] worked out at 0.00846 µg/mL. For the same molecule, the “MES-SA/Dx5 mean (IC50)” value in test [3] was 0.001421 µg/mL. The “SK-MES-1 mean (IC50)” value in test [4] is 0.003045 µg/mL. Also, in test [5], the “MCF10A mean (IC50)” value is 0.09228 µg/mL. The “HCT116 mean (IC50)” value in test [7] turned out to be 0.01585 µg/mL.

B3: Ex. 11: fusion protein: 18-amino acid peptide DD2 from DOC-2/DAB2 with 7 Arg transporting domain at C-terminus of TRAIL95-281, MMP and uPA sites (protein)
chain: TSEETISTVQEKQQNISPLVRERGPQRVAAHITGTRGRSNTLSSPNSKNEKALGRKINSWESSRSGHSFLSNLHLRNGELVIHEKGFYYIYSQTYFRFQEEIKENTKNDKQMVQYIYKYTSYPDPILLMKSARNSCWSKDAEYGLYSIYQGGIFELKENDRIFVSVTNEHLIDMDHEASFFGAFLVGCAACAAACGGGPLGLAGRVVRRRRRRRRGGGFQLRQPPLVPSRKGE
modifications: synthesized, a fusion protein comprising: a fragment of TRAIL protein, a fragment of peptide DD2 derived from DOC-2/DAB2, cleavage sites recognized by uPA and MMP, an arginine transporting domain and a cysteine-alanine-glycine steric linker.
notes: fusion protein: 18-amino acid peptide DD2 from DOC-2/DAB2 with 7 Arg transporting domain at C-terminus of TRAIL95-281, MMP and uPA sites
Regarding B3, the “A549 IC50” value in test [1] was 0.257 µg/mL. In test [2], the “MES-SA IC50” value came to 0.1044 µg/mL. Also, in test [3], the “MES-SA/Dx5 IC50” value was 0.00885 µg/mL. In addition, the “SK-MES-1 IC50” value in test [4] amounted to 0.03348 µg/mL. In addition, the “MCF10A IC50” value in test [5] was 0.1333 µg/mL. In addition, the half-maximal inhibitory concentration (IC50) in test [6] came to 0.063 µg/mL. The “HCT116 IC50” value in test [7] is 0.08429 µg/mL.

B4: Ex. 5: fusion protein: 34-amino acid fragment of human fetoprotein at N-terminus of TRAIL95-281, uPA and MMP cleavage sites (protein)
chain: LSEDKLLACGEGAADIIIGHLCIRHEMTPVNPGRVVRPLGLAGTSEETISTVQEKQQNISPLVRERGPQRVAAHITGTRGRSNTLSSPNSKNEKALGRKINSWESSRSGHSFLSNLHLRNGELVIHEKGFYYIYSQTYFRFQEEIKENTKNDKQMVQYIYKYTSYPDPILLMKSARNSCWSKDAEYGLYSIYQGGIFELKENDRIFVSVTNEHLIDMDHEASFFGAFLVG
modifications: synthesized, a fusion protein comprising: a fragment of TRAIL protein, a fragment of human fetoprotein and cleavage sites recognized by uPA and MMP.
notes: fusion protein: 34-amino acid fragment of human fetoprotein at N-terminus of TRAIL95-281, uPA and MMP cleavage sites
On to B4, for which, in test [1], the “A549 mean (IC50)” value was found to be 3 µg/mL. The “MES-SA mean (IC50)” value in test [2] was 0.095 µg/mL. Besides, the “MES-SA/Dx5 mean (IC50)” value in test [3] is 0.01116 µg/mL. The “SK-MES-1 mean (IC50)” value in test [4] was found to be 0.07965 µg/mL. Besides, the “MCF10A mean (IC50)” value in test [5] is 8.949 µg/mL. In test [7], the “HCT116 mean (IC50)” value came to 0.1798 µg/mL.

B5: Ex. 15: fusion protein: 15-amino acid fragment of PH domain of TCL1 protein with antennapedia sequence at C-terminus of TRAIL121-281, MMP and uPA sites (protein)
chain: RVAAHITGTRGRSNTLSSPNSKNEKALGRKINSWESSRSGHSFLSNLHLRNGELVIHEKGFYYIYSQTYFRFQEEIKENTKNDKQMVQYIYKYTSYPDPILLMKSARNSCWSKDAEYGLYSIYQGGIFELKENDRIFVSVTNEHLIDMDHEASFFGAFLVGGSPLGLAGRVVRDRQIKIWFQNRRMKWKKAVTDHPDRLWAWEKF
modifications: synthesized, a fusion protein comprising: a fragment of TRAIL protein, a fragment of PH domain of TCL1 protein - acting as Akt coactivator, cleavage sites recognized by uPA and MMP, an antennapedia transporting domain and a glycine-cysteine linker.
As to B5, in test [1], the “A549 mean (IC50)” value turned out to be 1 µg/mL. In addition, the “MES-SA mean (IC50)” value in test [2] is 0.123 µg/mL. In addition, the “MES-SA/Dx5 mean (IC50)” value in test [3] was 0.3289 µg/mL. For the same molecule, in test [4], the “SK-MES-1 mean (IC50)” value worked out at 0.0784 µg/mL. Also, the “MCF10A mean (IC50)” value in test [5] turned out to be 1 µg/mL. Moreover, the “HCT116 mean (IC50)” value in test [7] is 0.6035 µg/mL.

B6: Ex. 4: fusion protein: 34-amino acid fragment of human fetoprotein at C-terminus of TRAIL121-281, MMP and uPA cleavage sites (protein)
chain: RVAAHITGTRGRSNTLSSPNSKNEKALGRKINSWESSRSGHSFLSNLHLRNGELVIHEKGFYYIYSQTYFRFQEEIKENTKNDKQMVQYIYKYTSYPDPILLMKSARNSCWSKDAEYGLYSIYQGGIFELKENDRIFVSVTNEHLIDMDHEASFFGAFLVGPLGLAGRVVRLSEDKLLACGEGAADIIIGHLCIRHEMTPVNPG
modifications: synthesized, a fusion protein comprising: a fragment of TRAIL protein, a fragment of human fetoprotein and cleavage sites recognized by uPA and MMP.
notes: fusion protein: 34-amino acid fragment of human fetoprotein at C-terminus of TRAIL121-281, MMP and uPA cleavage sites
Turning to B6, the “A549 IC50” value in test [1] was more than 2 µg/mL. The “MES-SA IC50” value in test [2] came out at 0.2053 µg/mL. In addition, the “MES-SA/Dx5 IC50” value in test [3] turned out to be 0.01136 µg/mL. Also, the “SK-MES-1 IC50” value in test [4] amounted to 0.01011 µg/mL. Also, in test [5], the “MCF10A IC50” value is more than 2 µg/mL. In addition, the “HCT116 IC50” value in test [7] worked out at 0.03225 µg/mL.
